Assay results: the DeepSol protein solubility set

Assay: soluble on expression in E. coli; label from the status in PepcDB or PDB records

Sequence	soluble on expression in E. coli
MGSDKIHHHHHHMDDYGYRALPDALGTTYGSYLSAKSASGRYTVYVGANDGMLHAFDAGMTADGSMDASGGLERFAYIPATALGHMGNLLLPSDPTNRTTEYEHRYYVDGPVVVGDANYAGSWKTVVVGAAGAGGRSIFALDVTNPSNFSTSSKLWEISDLDSSLSTAIRNNIGHVLGKPVIVPVKNAAGAVTWKAIFGNGYNSRNGKAVLFVVDIKTGAPAVTMIEATETGSTIAGSNGLGNIVVVDRWGGASQTDGVRDGYADTVYGADQKGAIWKFDLRSSAASVTVPFFTTRTSVESGQTYRQPITGGLVATAGDAGGVMLFFGTGSFSFESDPKDEAIQSLYGVNDTVRGAPLTTATRANLRGSTVVQDGDRTLSRAAAPANSQGWYVDLPAKERMVGSPSIASGIVFIPTYTPAVVSSGCKPDGANWLFGLDTRTGDGALMDARKGSPTGASFASRTAATPLTTSGNAPVKDVGVSAIPRLSPAESGSAPGGQACWMVVTAAGSGPLYIPYPCGRQSWRQVQ	not soluble
MAQFVYTMHRVGKVVPPKRHILKNISLSFFPGAKIGVLGLNGAGKSTLLRIMAGIDKDIEGEARPQPDIKIGYLPQEPQLNPEHTVRESIEEAVSEVVNALKRLDEVYALYADPDADFDKLAAEQGRLEEIIQAHDGHNLNVQLERAADALRLPDWDAKIANLSGGERRRVALCRLLLEKPDMLLLDEPTNHLDAESVAWLERFLHDFEGTVVAITHDRYFLDNVAGWILELDRGEGIPWEGNYSSWLEQKDQRLAQEASQEAARRKSIEKELEWVRQGTKGRQSKGKARLARFEELNSTEYQKRNETNELFIPPGPRLGDKVLEVSNLRKSYGDRLLIDDLSFSIPKGAIVGIIGPNGAGKSTLFRMISGQEQPDSGTITLGETVKLASVDQFRDSMDNSKTVWEEVSGGLDIMKIGNTEMPSRAYVGRFNFKGVDQGKRVGELSGGERGRLHLAKLLQVGGNMLLLDEPTNDLDIETLRALENALLEFPGCAMVISHDRWFLDRIATHILDYQDEGKVEFFEGNFTEYEEYKKRTLGADALEPKRIKYKRIAK	soluble
GGSVKKGRRSRRCGQCPGCQVPEDCGVCTNCLDKPKFGGRNIKKQCCKMRKCQNLQWMPSKAYLQKQAKAVK	soluble
MALPVTSSANQPTGTNNVAATKCKGCFCPGNPCQLCRLPPHTDDPIPENEPETCRLIREAVPPASFQPGENEYFANLDKATIQCIRSGDVIPNTRRVPGYPGRVYCKPGLPALGAH	not soluble
MSLSEKMRRIVEAAGGIVWRWKAGSDIANDPAIASSKSAQEQLDSIEVCIVHRPKYDDWSWPKGKLEQNETHRHAAVREIGEETGSPVKLGPYLCEVEYPLSEEGKKTRHSHDCTADTKHTLYWMAQPISADDAEHLLDAFGPVHRADVGEINDIVWVSVREARKILSHSTDKDTLAVFVDRVQEGAATAQNLLIVRHAKAESRKSWKGTDANRPITPKGAAMAFALNRELACFNPTRLATSPWLRCQETLQVLSWQTERPMEHINTLTEDAFAEHPAVSWLAFREQITQTLNSRETTAICMHRPVIGGMYDHLRGLCARKQLAKQLIAKSPYMPTGTAMSLFIIDTPQGPSIIDIQKVSPIVYEGHHHHHH	soluble
KEKFNYYIGANIAADKNEVTKITLGGQNLMISGYSAHGAGGRGINMFAEGHPMSYFNLIETDGLFRSAEEIANYKNKDGELIQPAAQVGDVRYKDWNGDGKINTDDQHDVGSPFPDFTFGIRLGGEWNNFDFNLFFDGMVGNKIYNYPRYRLESGNFNGNMSTVLANSWRPDNQNTDIPRFSKTDGADNKWAYTDRWLEDGSYIRLKTLDIGYTLPKVLTKKIKLENVRIYTSMENLFTLTKYSGYTPDLGESSVAGVAYNVFSRGIDQGRYPLPRTISFGIQVNL	not soluble
